From publication PMC7227451 (Cellular and Molecular Immunology, 2020) come the findings set out here.

The test deals with T1, SARS-CoV-2 RBD-hFc (SARS-CoV-2, UniProt P0DTC2).
T1 construct: not shown: Fc (human IgG1), C-terminal, kept
As to the kind of experiment: ELISA. As to conditions: both partners purified. On the technique in general: An ELISA detects its analyte on a solid surface through an enzyme-linked reagent.

B1: 80R (antibody, V domains shown)
VH: EVQLVQSGGGVVQPGKSLRLSCAASGFAFSSYAMHWVRQAPGKGLEWVAVISYDGSNKYYADSVKGRFTISRDNSKNTLYLQMNSLRAEDTAVYYCARDRSYYLDYWGQGTLVTVSS
VL: ETTLTQSPATLSLSPGERATLSCRASQSVRSNLAWYQQKPGQAPRPLIYDASTRATGIPDRFSGSGSGTDFTLTISRLEPEDFAVYYCQQRSNWPPTFGQGTKVEVK
Consider B1, for which the binding result is listed as “no binding”.
